Results reported in US20210238276A1 (INTEGRAL MOLECULAR, published 2021).
Where a chain is given by its changes, count along the chain named.

Key:
Experiment in all cases: flow cytometry, alanine-scan library in HEK-293T
[1] = molecular target: T1, hsGLUT4 M112A (human, UniProt P14672 1-509)
T1 sequence: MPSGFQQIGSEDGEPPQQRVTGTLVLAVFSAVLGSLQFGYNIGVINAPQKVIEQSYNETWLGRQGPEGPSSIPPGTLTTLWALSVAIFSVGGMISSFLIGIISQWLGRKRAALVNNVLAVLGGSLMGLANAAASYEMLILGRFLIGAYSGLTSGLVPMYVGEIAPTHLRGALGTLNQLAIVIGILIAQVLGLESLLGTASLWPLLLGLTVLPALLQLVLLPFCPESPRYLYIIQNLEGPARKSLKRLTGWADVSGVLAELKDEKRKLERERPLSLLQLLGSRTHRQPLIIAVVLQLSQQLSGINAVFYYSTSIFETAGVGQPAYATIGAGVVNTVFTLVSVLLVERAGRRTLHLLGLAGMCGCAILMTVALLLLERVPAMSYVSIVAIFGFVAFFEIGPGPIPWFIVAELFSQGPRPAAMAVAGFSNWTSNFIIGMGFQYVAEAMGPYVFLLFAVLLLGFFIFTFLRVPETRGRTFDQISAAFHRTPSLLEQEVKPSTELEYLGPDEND
Summary of the method: (§1)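 HEK-293T cells expressing individual GLUT4 alanine mutants were stained 48 h post-transfection with anti-GLUT4 scFv MAbs (2 μg/ml), then biotinylated secondary and streptavidin-PerCP, and read by high-throughput flow cytometry. Where used, cytochalasin B (10 uM final) was given for 30 min before and during primary antibody staining.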

[2] = molecular target: T2, hsGLUT4 M158A (human, UniProt P14672 1-509)
T2 sequence: T1 sequence with A112M, M158A
Summary of the method: as §1

[3] = molecular target: T3, hsGLUT4 G356A (human, UniProt P14672 1-509)
T3 sequence: T1 sequence with A112M, G356A
Summary of the method: as §1

[4] = molecular target: T4, hsGLUT4 N508A (human, UniProt P14672 1-509)
T4 sequence: T1 sequence with A112M, N508A
Summary of the method: as §1

1F8 (antibody)
% of binding to wild type GLUT4 [1]: 120% | % of binding to wild type GLUT4 [2]: 95% | % of binding to wild type GLUT4 [3]: 90% | % of binding to wild type GLUT4 [4]: 21%

B1: AB108 (Fc fusion)
scFv: ALTQPSSVSANLGGTVKITCSGSSGSYGWYQQKAPGSAPVTLIYRNDKRPSDIPSRFSGSESGSTGTLTITGVQAEDEAVYFCGGYDSSAGYAAFGAGTTLTVLGQSSRSSGGGGSSGGGGSAVTLDESGGGLQTPGGALSLVCKASGFTFSSHGMGWVRQAPGKGLEWVGSISTGRYTFYAPAVKGRATISRDNGQSTLRLQLNNLRAEDTGTYYCTKCAGLNGCGGGEIDAWGHGTEVIVSS
notes: Bivalent scFv-Fc; also called MAb AB108; not shown: Fc fragment of human IgG1, cloned in frame with the scFv
% of binding to wild type GLUT4 [1]: 57% | % of binding to wild type GLUT4 [2]: 110% | % of binding to wild type GLUT4 [3]: 19% | % of binding to wild type GLUT4 [4]: 89%

B2: AB111 (Fc fusion)
scFv: ALTQPSSVSANPGETVKITCSGSGSWYGWFQQKSPGSAPVTVIYSNDKRPSDIPSRFSGSKSGSTSTLTITGVQVEDEAVYYCGNWDIFGAGTTLTVLGQSSRSSGGGGSSGGGGSAVTLDESGGGLQTPGGALSLVCKASGFTFSSHGMGWVRQAPGKGLEWVASISTGRYTFYAPAVKGRATISRDNGQSTVRLQLNNLRAEDTATYYCTKCAGLNGCGGGEIDAWGHGTEVIVSS
notes: Bivalent scFv-Fc; also called MAb AB111; not shown: Fc fragment of human IgG1, cloned in frame with the scFv
% of binding to wild type GLUT4 [1]: 79% | % of binding to wild type GLUT4 [2]: 107% | % of binding to wild type GLUT4 [3]: 137% | % of binding to wild type GLUT4 [4]: 193%

B3: AB101 (scFv)
scFv: ALTQPSSVSANPGETVKITCSGSSNSYGWYQQKSPGSAPVTVIYYNDKRPSDIPSRFSGSKSDSTHTLTITGVRAEDEAVYFCGSYDSTYVGIFGAGTTLTVLGQSSRSSGGGGSSGGGGSAVTLDESGGGLQTPGGTLSLVCKASGFTFSSNAMGWVRQAPGKGLEWVAGISSDGRYTKYGSAVKGRATISRDNGQSTVRLQLNNLRAEDTGTYFCAKAFGNNYRRIYAGQIDAWGHGTEVIVSS
notes: Chicken-derived clone used as a control; the four lead clones were tested as scFv-human IgG1 Fc; also called MAb AB101
% of binding to wild type GLUT4 [1]: 103% | % of binding to wild type GLUT4 [2]: 126% | % of binding to wild type GLUT4 [3]: 46% | % of binding to wild type GLUT4 [4]: 7%
